Each block holds one molecule with its values, some of them ahead of it.
How the values were obtained:
[1] = target: Cdh23-EC1+2 (mouse cadherin-23 extracellular repeats EC1 and EC2), wild type (mouse) (UniProt Q99PF4); assay: AUC
[2] = target: Cdh23-EC1+2 (mouse cadherin-23 extracellular repeats EC1 and EC2), wild type (mouse) (UniProt Q99PF4); assay: dynamic light scattering
[3] = target: Cdh23-EC1+2 (mouse cadherin-23 extracellular repeats EC1 and EC2), wild type (mouse) (UniProt Q99PF4); assay: single-molecule force spectroscopy
[4] = target: Cdh23-EC1+2 (mouse cadherin-23 extracellular repeats EC1 and EC2), wild type (mouse) (UniProt Q99PF4); assay: SEC
[5] = target: Cdh23-EC1+2 (mouse cadherin-23 extracellular repeats EC1 and EC2), wild type (mouse) (UniProt Q99PF4); assay: FRET or BRET
[6] = target: Cdh23-EC1+2 V3C, labelled with cy3 or cy5 at the N-terminus (mouse); assay: FRET or BRET
[7] = target: the molecule itself; assay: AUC

Kd [1]: 18 µM
stoichiometry N [1]: 2
stoichiometry N [2]: 2
percent unbinding events [3]: 8 to 10%
probability of events [3]: 6%
τ0 (intrinsic lifetime at zero force), high-force distribution [3]: 1220 s
τ0 (intrinsic lifetime at zero force), low-force distribution [3]: 1.86 s
stoichiometry N [4]: 2
Molecule: Cdh23-EC1+2 (mouse cadherin-23 extracellular repeats EC1 and EC2), wild type (from UniProt Q99PF4 24-228) (domain or fragment)

FRET efficiency [5]: 0.64
FRET efficiency [6]: 0.15
Molecule: Cdh23-EC1+2 V3C, labelled with cy3 or cy5 at the N-terminus (domain or fragment)

B1: Cdh23-EC1 (mouse cadherin-23 extracellular repeat EC1) (domain or fragment, UniProt Q99PF4 24-124, looked up)
chain: QVNRLPFFTNHFFDTYLLISEDTPVGSSVTQLLARDMDNDPLVFGVSGEEASRFFAVEPDTGVVWLRQPLDRETKSEFTVEFSVSDHQGVITRKVNIQVGD
modifications: C-terminus covalently joined by sortase A to GGGGC on PEG-coated coverslips and AFM cantilevers in force spectroscopy
stoichiometry N [7]: 2
